T1: mouse FcγRIV (Mus musculus, UniProt A0A0B4J1G0)
T1 construct: made in house; host or cells: HEK293E cells (transient)
T1 sequence (A0A0B4J1G0 21-249): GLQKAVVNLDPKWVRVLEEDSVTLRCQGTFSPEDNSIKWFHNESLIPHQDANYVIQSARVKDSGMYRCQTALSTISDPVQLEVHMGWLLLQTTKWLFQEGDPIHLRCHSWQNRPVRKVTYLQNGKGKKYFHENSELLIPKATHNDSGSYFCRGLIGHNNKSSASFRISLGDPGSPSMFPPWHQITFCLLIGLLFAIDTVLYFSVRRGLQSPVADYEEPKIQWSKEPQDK


Experiments:
[1] = test system: human peripheral blood B cells; assay: Direct cytotoxic effects (PCD, ADCC, CDC) on normal cells; assay type: cell-based; conditions: antibody cross-linked or not
Experimental: All experiments were performed in triplicate.
Target cells were harvested as described above (under ADCC heading) and incubated with antibodies at 5 μg/mL for 60 min on ice and then washed. Human serum, normal or heat-inactivated (Sigma, Sweden), was added to tubes and the samples were incubated for 2 hr at 37° C. After completion of incubation, ToPo-Pro-3 (Invitrogen) was added at a final concentration of 0.3 μM and cells were analyzed for membrane permeabilization using flow cytometry.

MC/CAR = assay: IgG binding to multiple myeloma cell line, flow cytometry MFI; set-up: species or system human; conditions: control FITC-8 IgG MFI subtracted
Experimental: (§1) • ^aApoptosis Induction; determined by percentage of viable cells after 6 hour incubation with any of the human antibodies, crosslinked with Goat anti-Human (gamma) Fc specific antibody; −, viability not affected; +, 95-80%; ++, 79-60%; +++, 59-40% viable cells compared to control (human FITC-8 IgG1). […] The cell line dependent MFI value of control human FITC-8 IgG antibody was subtracted from the MFI of each human antibody.

[2] = test system: THP-1 monocytic leukaemia cells; assay: IgG binding to tumour cell line, flow cytometry; set-up: species or system human
Text: (§2) FIG. 6—Binding of B1, B11, C11 IgG, to tumour cell lines of different origin. The antigen distribution of antigens targeted by the B1, B11, and C11 antibodies on different carcinoma cell lines was investigated by flow-cytometry.
(§3) The antigen distribution of human antibody targeted antigens, mainly for B11, on different carcinoma cell lines was investigated. Cells (MCF-7 and MDA MB 435S breast carcinoma, JAR and JEG-3 chorio-carcinoma, A549 lung carcinoma, TCC-SUP urinary bladder carcinoma, MDA MB 435 melanoma, HPAC, PANC-1 and BxPC-3 pancreatic carcinoma, PC-3 and DU145 prostate carcinoma, LS174 T, CaCo2, and Lovo colorectal carcinoma, and THP-1 monocytic leukaemia cells), were washed in PBS, and resuspended at 4×10^6 cells/ml in Complete Medium (200,000 cells/50 […] sample). […] Cells were incubated with either of the antibodies for 1 hour on ice, washed by resuspension in PBS/BSA 0.5%, centrifuged at 1200 rpm for 5 min, and complete aspiration of the supernatants was undertaken. Cells were incubated with PE-conjugated Goat F(ab′)2 anti-Human IgG (Caltag Laboratories, Cat no: H10104), diluted 1/50 in PBS/BSA 0.5%, for 30 min, on ice. Following resuspension of in 300 μl PBS/BSA 0.5%, cells were analysed for IgG binding using a FACScan instrument.

[3] = test system: LS174 T colorectal carcinoma; assay: IgG binding to tumour cell line, flow cytometry; set-up: species or system human; conditions: compared to the prostate cancer cells
Text: as §2, §3

[4] = test system: HPAC pancreatic carcinoma; assay: IgG binding to tumour cell line, flow cytometry; set-up: species or system human; conditions: compared to the prostate cancer cells
Text: as §2, §3

MCF-7 breast carcinoma = assay: IgG binding to tumour cell line, flow cytometry; set-up: species or system human; conditions: MCF-7, compared to the prostate cancer cells
Text: as §2, §3

CL-01 = assay: IgG binding to B lymphoma cell line, flow cytometry MFI; set-up: species or system human; conditions: CL-01, Burkitt's Lymphoma; control FITC-8 IgG MFI subtracted
Experimental: as §1

Granta 519 = assay: as above; set-up: species or system human; conditions: Granta 519, Mantle cell Lymphoma; control FITC-8 IgG MFI subtracted
Experimental: as §1

JVM-2 = assay: as above; set-up: species or system human; conditions: JVM-2, Mantle cell Lymphoma; control FITC-8 IgG MFI subtracted
Experimental: as §1

Ramos = assay: as above; set-up: species or system human; conditions: Burkitt's Lymphoma, control FITC-8 IgG MFI subtracted
Experimental: as §1

SC-1 = assay: as above; set-up: species or system human; conditions: SC-1, Follicular Lymphoma; control FITC-8 IgG MFI subtracted
Experimental: as §1

ARH-77 tumors = assay: SCID/ARH-77 subcutaneous xenograft model
Experimental: For subcutaneous grafting, 1-5×10^6 tumor cells (RPMI-8226, NCI-H929, EJM, OPM-2, ARH-77, or Daudi) were subcutaneously injected at a volume of 100 μl into the left flank of anesthetized mice as described in the Supplemental Information. […] Treatment with saline, isotype control IgG, bortezomib, lenalidomide, dexamethasone, or BI-505 started on day 5 (RPMI-8226). Treatment with melphalan started on day 10. BI-505 or isotype IgG mAb was administered i.v. at 2 mg/kg/inj twice weekly for 8 weeks; bortezomib at 1 mg/kg/inj once weekly for 8 weeks; lenalidomide orally at 2 mg/kg/inj for 2 cycles consisting of 5 days of treatment and 2 days of wash out; melphalan i.v. at 3 mg/kg/inj once weekly for 8 weeks; and dexamethasone at 6 mg/kg/inj three times weekly for 2 weeks.
Mice were anaesthetized with a mixture of sevofluran and oxygen prior to myeloma cell inoculation and 1-10×10^6 myeloma cells were then subcutaneously injected in a volume of 100 μl into the left flank. Treatment with antibodies by intraperitoneal injection started either 1 day after cell inoculation (prophylactic model) or when tumors reached approximately 100 mm^3 (established model). Antibodies were administered in 200 μL of PBS. Treatment with PBS only or isotype IgG were used as controls. Macrophages or NK-cells were depleted by i.p. administration of 0.1 ml clodronate liposomes (Clophosome-A, FormuMax, Scientific Inc. Palo Alto, USA) or 20 μl anti-asialo GM1 pCI Ab (CL8955, Cedarlane Laboratories Limited, Canada) respectively, starting one day prior to antibody treatment, followed by administration twice weekly for a total of three weeks, PBS was used as control.
Tumor size was measured using a digital calliper and tumor volumes were calculated according to the formula width^2×length×0.52, as previously described (Cao et al., 1999).
Statistical analyses of tumor growth inhibition relative to control antibody treatment were carried out using Kruskal-Wallis nonparametric ANOVA with Dunn's multiple comparisons test or Mann-Whitney non-parametric analysis, as indicated in the figure legends.

mouse FcγRIV = biological target: T1, mouse FcγRIV; assay: BiaCore analysis of BI-505 Fc-variant binding to FcγR
Experimental: (FIG. 20B) BiaCore analysis of BI-505 Fc-variant antibodies binding to mouse FcγRIV.
His-tagged human FcγRIIIa and mouse FcγRIV were transiently expressed in HEK293E cells, purified using Ni-NTA chromatography, and characterized by SDS-PAGE and/or Biacore. Surface plasmon resonance (SPR) measurements were performed using a Biacore 3000 instrument. Goat F(ab)′2 α-human-F(ab)′2 fragments (Jackson Laboratories) were immobilized with a CM-5 chip using a standard amine coupling protocol. BI-505 (IgG1) and IgG4 or IgG1 297Q variants of BI-505 were diluted to 15 and 60 μg/mL respectively and added to the surface at 10 μL/min for 3 min. His-tagged human FcγRIIIa or mouse FcγRIV was pre-incubated with an α-HIS antibody (R&D Systems) at a 2:1 molar ratio before addition to the chip surface, 30 μL/min, for 1 min. After each cycle the surface was regenerated twice with glycine buffer pH 1.7.

[5] = tumors established for 12 days before start of antibody treatment

Molecule | cell death in normal cells [1] | MFI (MC/CAR) | binding / ICAM-1 expression [2] | binding / ICAM-1 expression [3] | binding / ICAM-1 expression [4] | binding / ICAM-1 expression (MCF-7 breast carcinoma) | MFI (CL-01) | MFI (Granta 519) | MFI (JVM-2) | MFI (Ramos) | MFI (SC-1) | antitumor activity (ARH-77 tumors; dose-titration, dose of 0.2 mg/kg) | in vivo antitumor activity of Fc-variants, order (ARH-77 tumors; established ARH-77 tumors) | tumor macrophage infiltration (ARH-77 tumors; established ARH-77 tumors, F4/80+ immunohistochemistry) | tumor NK cell content (ARH-77 tumors; established ARH-77 tumors, immunohistochemistry) | survival (ARH-77 tumors; prophylactic, 0.2 mg/kg, compared to 20 mg/kg rituximab) | injected mice in which tumor growth was prevented (ARH-77 tumors; prophylactic, 20 mg/kg twice-weekly from 1 day after tumor cell inoculation) | animal survival (ARH-77 tumors; [5]) | tumor growth (ARH-77 tumors; [5]) | binding to mouse FcγRIV, order (mouse FcγRIV)
B11: fully human IgG1 antibody specific for ICAM-1; VH and VL sequences of FIG. 10 (SEQ ID NOs. 6 and 8) (antibody, listed as Homo sapiens, V domains shown) VH: EVQLLESGGGLVQPGGSLRLSCAASGFTFSNAWMSWVRQAPGKGLEWVAFIWYDGSNKYYADSVKGRFTISRDNSKNTLYLQMNSLRAEDTAVYYCARYSGWYFDYWGQGTLVTVSS VL: QSVLTQPPSASGTPGQRVTISCTGSSSNIGAGYDVHWYQQLPGTAPKLLIYDNNNRPSGVPDRFSGSKSGTSASLAISGLRSEDEADYYCQSYDSSLSAWLFGGGTKLTVLG | did not induce cell death | 120 | did not express ICAM-1 | lower intensity | lower intensity | lower intensity | 600 | 260 | 100 | 100 | 0 | near maximal | IgG1 N297Q<IgG4<IgG1 | significantly increased tumor macrophage infiltration | decreased tumor NK cell content | equally efficacious | 9 out of 10 | prolonged animal survival | significantly reduced tumor growth | IgG1 N297Q<IgG4<IgG1
C11: fully human IgG1 antibody specific for surface IgM; VH and VL sequences of FIG. 11 (SEQ ID NOs. 10 and 12) (antibody, listed as Homo sapiens, V domains shown) VH: EVQLLESGGGLVQPGGSLRLSCAASGFTFGSYEMNWVRQAPGKGLEWVSVIYSGGSTYYADSVEGRFTISRDNSKNTLYLQMNSLRAEDTAVYYCARDTNPYYYYGMDVWGQGTLVTVSS VL: QSVLTQPPSASGTPGQRVTISCSGSSSNIGNNAVNWYQQLPGTAPKLLIYRNNQRPSGVPDRFSGSKSGTSASLAISGLRSEDEADYYCQSYDSSLNGQVFGGGTKLTVLG | – | 0 | – | – | – | – | 60 | 60 | 10 | 240 | 50 | – | – | – | – | – | – | – | – | –

Reference: patent publication US9803013B2, “Biological materials and uses thereof” (BioInvent International AB, priority 2005, dated 2017)
